Laboratory results published in patent US20110091971A1, “Differentiation of Pluripotent Stem Cells” (priority 2008, published 2011).
Values joined by “and” are separate entries in the source; they are usually repeats but may differ in a detail not shown here. Identical values can stand only once.

Tested on: H1 or H9 human embryonic stem cells
Assay: Activin A bioassay: differentiation of human embryonic stem cells to definitive endoderm, cell number and SOX17 intensity by high content analysis (96-well, four days);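 for Cell Number average: Raw total cell count per well from high content imaging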;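 for Sox 17 Intensity average: total fluorescence of the cell multiplied by cell area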
Type: cell-based
Details: for Sox 17 Intensity % of control: control = R&D Sys Activin A 100 ng/ml on same plate
Description: Activin A is an important mediator of differentiation in a broad range of cell types. […] A bioassay that measures this differentiation in human embryonic stem cells was adapted in miniaturized format to 96-well plates for screening purposes. Validation was completed using treatment with commercial sources of activin A and Wnt3a recombinant proteins and measuring protein expression of the transcription factor SOX17, which is considered a representative marker of definitive endoderm.
Live Cell Assay: Briefly, clusters of H1 or H9 human embryonic stem cells were grown on growth factor-reduced MATRIGEL™ (Invitrogen; Cat #356231)-coated tissue culture plastic. Cells were passaged using collagenase (Invitrogen; Cat # Cat #17104-019) treatment and gentle scraping, washed to remove residual enzyme, and plated in a ratio of 1:1 (surface area) on growth factor-reduced MATRIGEL™-coated 96-well plates (black, 96-well; Packard ViewPlates; Cat #6005182). Cells were allowed to attach as clusters and then recover log phase growth over a 1 to 3 day period, feeding daily with MEF conditioned medium supplemented with 8 ng/ml bFGF (R&D Systems; Cat #233-FB).
The assay was initiated by washing the wells of each plate twice in PBS and followed by adding an aliquot (100 μl) of test sample in DMEM:F12 basal medium (Invitrogen; Cat #11330-032) to each well. Test conditions were performed in triplicate, feeding […] by aspirating and replacing the medium from each well with test samples over a total four day assay period. On the first and second day of assay, test samples added to the assay wells were diluted in DMEM:F12 with 0.5% FCS (HyClone; Cat #SH30070.03) and 20 ng/ml Wnt3a (R&D Systems; Cat #1324-WN). On the third and fourth day of assay, test samples added to the assay wells were diluted in DMEM:F12 with 2% FCS, without any Wnt3a. Positive control samples consisted of recombinant human activin A (Peprotech; Cat #120-14) added at a concentration of 100 ng/ml throughout assay plus Wnt3a (20 ng/ml) on days 1 and 2. Negative control samples omitted treatment with both activin A and Wnt3a.
High Content Analysis: At the conclusion of four days of culture, assay plates were washed twice with PBS, fixed with 4% paraformaldehyde at room temperature for 20 minutes, then washed three times with PBS and permeabilized with 0.5% Triton X-100 for 20 minutes at room temperature. Cells were washed again three times with PBS and blocked with 4% chicken serum (Invitrogen; Cat #16110082) in PBS for 30 minutes at room temperature. Primary antibody (goat anti-human SOX17; R&D Systems; cat #AF1924) was diluted 1:100 in 4% chicken serum and added to each well for one hour at room temperature. Alexa Fluor 488 conjugated secondary antibody (chicken anti-goat IgG; Molecular Probes; Cat #) was diluted 1:200 in PBS and added to each sample well after washing three times with PBS. To counterstain nuclei, 4 μg/ml Hoechst 33342 (Invitrogen; Cat #H3570) was added for ten minutes at room temperature. Plates were washed once with PBS and left in 100 μl/well PBS for imaging.
Imaging was performed using an IN Cell Analyzer 1000 (GE Healthcare) utilizing the 51008bs dichroic for cells stained with Hoechst 33342 and Alexa Fluor 488. Exposure times were optimized from positive control wells and from untreated negative control wells stained with secondary antibody alone. Images from 15 fields per well were acquired to compensate for any cell loss during the bioassay and subsequent staining procedures. Measurements for total cell number and total SOX17 intensity were obtained from each well using IN Cell Developer Toolbox 1.7 (GE Healthcare) software. Segmentation for the nuclei was determined based on grayscale levels (baseline range 100-300) and nuclear size. Averages and standard deviations were calculated for each replicate data set. […]

[1] = supernatant concentration 1x, assay dilution 1:20
[2] = supernatant concentration 10x, assay dilution 1:20
[3] = supernatant concentration 10x, assay dilution 1:40
[4] = supernatant concentration 10x, assay dilution 1:20, assay plates #007, #009, #010
[5] = supernatant concentration 50x, assay dilution 1:20, assay plates #008, #009

Molecule	Cell Number average [1]	Sox 17 Intensity average [1]	Sox 17 Intensity % of control [1] [%]	Cell Number average [2]	Sox 17 Intensity average [2]	Sox 17 Intensity % of control [2]	Cell Number average [3]	Sox 17 Intensity average [3]	Sox 17 Intensity % of control [3] [%]	Cell Number average [4]	Sox 17 Intensity average [4]	Cell Number average [5]	Sox 17 Intensity average [5]	Sox 17 Intensity % of control (supernatant concentration 50x, assay dilution 1:20) [%]
ACTN47: activin A variant peptide, SEQ ID 48 (protein) GLECDGKVNYCCKKQNFVSFKDIGWNDWIIAPSGYHANECSGKCPSHIAGTSGSSLSFHSTVINHYRMRGHSPFSDMGSCCIPTKLRPMSMLYYDDGQNIIKKDIQNMIVEECGCS	2624	7.48E+05	8.0	1399	4.27E+06	45.7%	1610	1.09E+06	11.7	–	–	–	–	–
ACTN52: activin A variant peptide, SEQ ID 53 (protein) GLECDGKVNICCKKQLFGKTKDIGWNDWIIAPSGYHGGSCTGECPSHIAGTSGSSLSFHSTVINHYRMRGHSPNANLKSCCSPTKLRPMSMLYYDDGQNIIKKDIQGMKVEECGCT	3092	1.17E+05	1.3	4869	2.64E+04	0.3%	3900	9.50E+04	1.0	–	–	–	–	–
ACTN53: activin A variant peptide, SEQ ID 54 (protein) GLECDGKVNICCKKQEFGQAKDIGWNDWIIAPSGYHGGGCSGECPSHIAGTSGSSLSFHSTVINHYRMRGHSPWANLKSCCSPTKLRPMSMLYYDDGQNIIKKDIQGMKVEECGCT	1610	1.14E+06	3.8	3229	1.51E+06	5.1%	3476	9.41E+05	3.2	–	–	–	–	–
ACTN55: activin A variant peptide, SEQ ID 56 (protein) GLECDGKVNICCKKQSFGQTKDIGWNDWIIAPSGYHGGGCTGECPSHIAGTSGSSLSFHSTVINHYRMRGHSPWANLKSCCSPTKLRPMSMLYYDDGQNIIKKDIQGMVVEECGCT	2425	3.41E+05	1.2	3611	2.67E+05	0.9%	2761	5.44E+05	1.8	–	–	–	–	–
ACTN57: activin A variant peptide, SEQ ID 58 (protein) GLECDGKVNICCKKQSFGQAKDIGWNDWIIAPSGYHGGGCSGECPSHIAGTSGSSLSFHSTVINHYRMRGHSPWANLKSCCSPTKLRPMSMLYYDDGQNIIKKDIQNMKVEECGCT	4485	9.99E+05	3.4	6471	1.74E+06	5.9% and 6.8%	4594	1.30E+06	4.4	9442	1.70E+06	12697	7.82E+06	31.4
ACTN59: activin A variant peptide, SEQ ID 60 (protein) GLECDGKVNICCKKQLFGQTKDIGWNDWIIAPSGYHGGGCTGECPSHIAGTSGSSLSFHSTVINHYRMRGHSPNANLKSCCAPTKLRPMSMLYYDDGQNIIKKDIQGMKVEECGCV	2613	1.09E+06	3.7	3304	2.11E+06	7.1%	1776	1.81E+06	6.1	–	–	–	–	–
ACTN62: activin A variant peptide, SEQ ID 63 (protein) GLECDGKVNICCKKQSFGQAKDIGWNDWIIAPSGYHGGGCTGECPSHIAGTSGSSLSFHSTVINHYRMRGHSPWANLKSCCSPTKLRPMSMLYYDDGQNIIKKDIQNMVVEECGCT	1661	1.05E+06	3.6	5728	2.45E+05	0.8%	3782	1.33E+06	4.5	–	–	–	–	–
ACTN63: activin A variant peptide, SEQ ID 64 (protein) GLECDGKVNICCKKQSFSQAKDIGWNDWIIAPSGYHGGGCTGECPSHIAGTSGSSLSFHSTVINHYRMRGHSPFANLKSCCSPTKLRPMSMLYYDDGQNIIKKDIQGMVVEECGCT	3380	1.07E+06	3.6	1935	2.28E+06	7.7%	2718	2.01E+06	6.8	–	–	–	–	–
ACTN64: activin A variant peptide, SEQ ID 65 (protein) GLECDGKVNICCKKQSFGQTKDIGWNDWIIAPSGYHGGGCSGECPSHIAGTSGSSLSFHSTVINHYRMRGHSPWANLKSCCSPTKLRPMSMLYYDDGQNIIKKDIQGMVVEECGCT	2415	1.30E+06	4.4	2215	1.55E+06	5.2%	2688	1.12E+06	3.8	–	–	–	–	–
ACTN71: activin A variant peptide, SEQ ID 72 (protein) GLECDGKVNICCKKQSFGQAKDIGWNDWIIAPSGYHGGGCTGECPSHIAGTSGSSLSFHSTVINHYRMRGHSPFANLKSCCSPTKLRPMSMLYYDDGQNIIKKDIQNMKVEECGCT	1621	2.45E+05	0.8	3909	3.61E+05	1.2%	1970	1.01E+06	3.4	–	–	–	–	–
